Source: US20100105876A1, “Method for the oligomerisation of peptides” (priority 1996, published 2010)
Bridge positions count the residues as written; N and C are the ends. Ends that are not written are not given here.

Experiments:
[1] = target: Pentabody Pab-S (peptide S - camel Ig hinge - modified COMP pentamerization domain - 6xHis, homopentamer) (UniProt P35444); assay: soluble BCL1 IgM competing the binding of Pab-S to BCL1 cells
[2] = target: BCL1 IgM idiotype; assay: RIA competition on plastic: inhibition of 125I labeled B1 IgG binding to coated BCL1 IgM; set-up: species or system mouse
Experimental: RIA competition on plastic. Polyvinil 96-well plates are coated with BCL1 IgM at 3 μg/ml in PBS for 16 h at 4° C. and blocked with 2% MPBS for 1 h at 37° C. Different amounts of peptides are incubated with 10 nCi of ^125I labeled B1 IgG for 1 h at 37° C. The wells are washed with PBS containing 0.1% of Tween-20 and the amounts of radioactivity retained is measured with an automated multichannel Cobra II γ-counter.
Synthetic peptides corresponding to the selected sequences are prepared as outlined in Table 1. Cysteins containing peptide S is completely oxidized on air loosing two hydrogen atoms, as shown by Mass Spectroscopy, which is consistent with the cyclization of the peptide. All synthetic peptides are tested for binding inhibition of ^125I labeled B1 IgG to BCL1 IgM coated on plastic. The D and the S peptides inhibit binding with an IC50 of about 60 μM and 200 μM, respectively. No inhibition is seen with peptide F up to 2 mM, which is used, thereafter, as a negative control.
However, since spatial arrangement of target molecule on the surface may influence multivalent binding, the equilibrium binding parameters of Pab-S are determined directly on live BCL1 cells, which represent a more relevant biological surface. Purified Pab-S is labeled with ^125I and is shown to bind to BCL1 idiotype on the cell surface. […]

[3] = target: BCL1 soluble IgM (idiotype-bearing IgM purified from the serum of a mouse carrying the BCL1 B-cell lymphoma) (mouse); assay: RIA competition: peptide against 125I B1 IgG on BCL1 IgM coated on plastic

Chain of UniProt P35444 (P35444 other isoform, or with tags, fused parts or gaps): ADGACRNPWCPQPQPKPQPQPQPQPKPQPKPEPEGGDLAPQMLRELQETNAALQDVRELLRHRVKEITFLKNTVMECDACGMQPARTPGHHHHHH

Molecule: BCL1 soluble IgM (idiotype-bearing IgM purified from the serum of a mouse carrying the BCL1 B-cell lymphoma) (antibody)
- concentration for 80% displacement [1]: 100 nM

Molecule: SVWRWLPYDKYE
- IC50 ([2]; synthetic peptides, BCL1 IgM coated on plastic): ~60 µM

Molecule: peptide F: Synthetic peptide, first ten amino acids of the sequence selected from the Fisch library (SEQ ID 3); negative control (TAAGLCEFDQ; Synthetic peptide ligand specific for mouse BCL1 idiotype selected from peptide libraries dispalyed on filamentous bacteriophage displaying random hexapeptides or decapeptides)
- inhibition of 125I labeled B1 IgG binding to BCL1 IgM coated on plastic ([2]; up to 2 mM peptide): No inhibition

Molecule: ADGACRNPWC (disulfide 5-10 (inferred)) [synthetic peptide S (selected from the Smith library, oxidized/cyclized)]
- IC50 [3]: 200 µM

Molecule: SVWRWLPYDKYE [synthetic peptide D (selected from the Doorbar library)]
- IC50 [3]: 60 µM
